Measured values from article PMC6595629, “Continuous Culture Adaptation of Methylobacterium extorquens AM1 and TK 0001 to Very High Methanol Concentrations” (Frontiers in Microbiology, 2019).

B1: MetY (O-acetyl-L-homoserine sulfhydrylase) (Methylorubrum extorquens AM1) (protein)
chain: MTDRQPGFNTLAIHAGATPDPATGARATPIYQTTSFVFDDVDHAASLFGLQAFGNIYTRITNPTNAVLEERIAALEGGTAALAVASGHAAEFLTLHALMQPGDEFIAANKLYGGSINQFNHSYKNFGWQVVWADTDDPDSFERAITPRTKAIFCESIANPGGVITDIAALSVIAKRHNIPLIVDNTMATPYLIKPFEHGADIVVHSATKFLGGHGNSIGGLIVDGGTFQWQGDARYPMLSEPRPEYAGMVLAETFGNFGFAIAVRVLSLRDLGPSLSPFNAFLILNGIETLPLRMQRHSDNALKVATFLKNHANVDWVSYPGLESDRYHALAQRYTPKGAGAVFTFGLKGGYEAGVKLVSNLQLFSHLANIGDTRSLVIHPASTTHRQLTDEQKRAAGAGPEVVRLSIGIEDAQDLIDDLDAALRA
notes: full-length, N-terminal 6xHis tag, modified pET22b(+), E. coli BL21(DE3), purified; printed primers translate to N-terminus … and C-terminus TLARAA

Experiments:
[1] = biological target: T1, MetY (O-acetyl-L-homoserine sulfhydrylase) (Methylorubrum extorquens, UniProt C5ARH8); test: coupled acetic acid assay (NADH oxidation, […] nm); assay type: biochemical; conditions: pH 7.4, room temperature; co-substrate O-acetyl-L-homoserine saturating
T1 construct: full-length, N-terminal 6xHis tag, modified pET22b(+), E. coli BL21(DE3), purified; printed primers translate to N-terminus MHHHHHHSDQTPASVY and C-terminus TLARAA

purified protein = substrate: CC(=O)OCC[C@H](N)C(=O)O; test: purified protein; assay type: biochemical, Methylorubrum extorquens; conditions: pH 7.4, room temperature, other substrate saturating (sulfide or methanol; which one is not given)

Molecule | Km [1] | Km (purified protein) | kcat (purified protein) | kcat/Km (purified protein)
S [Sodium sulfide] | 800 ± 200 µM | – | – | –
B1 | – | 1300 ± 200 µM | 2.32 ± 0.12 s⁻¹ | 1850 M⁻¹ s⁻¹
